Here are results for one molecule from publication PMC11927663 (Science Advances, 2025).

The assay deals with β-subunit of nerve growth factor (UniProt P01138 122-241). The assay is described as follows: ELISA. A general note: In an ELISA, binding on a coated surface is turned into a signal by an enzyme label.

Where no end group is shown, it is not given here.

Sequence of β-subunit of nerve growth factor (P01138 122-241): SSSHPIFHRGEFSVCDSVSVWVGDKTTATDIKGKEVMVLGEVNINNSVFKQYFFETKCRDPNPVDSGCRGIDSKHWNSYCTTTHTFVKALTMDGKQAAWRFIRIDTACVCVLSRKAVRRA

With NERALTLGEEGAVVK (also: displayed on M13 phage) [NK-displaying M13 phage (β-NGF-binding peptide NK displayed on M13 phage)], the “fold increase in ELISA absorbance” value stood at 4 fold.
